Test results from US20230263916A1 (NANOMAB TECHNOLOGY, published 2023).

Tests used:
[1] = target: T1, human Her2 (ECD)-Fc protein (human, UniProt P04626 23-652); test: PE-ELISA, A405 of antigen well over control well
T1 construct: extracellular domain; Made in HEK293F cells; also called hHer2 (ECD)-Fc antigen; Her2 (ECD)-Fc antigen; not shown: TEV restriction site at the C-terminal of hHer2 (ECD); IgG1 Fc of the pFUSE-IgG1 vector
Protocol: (§1) (1) 10 μg Her2 (ECD)-Fc antigen (10 μg Fc in NaHCO₃ as control) dissolved in 100 mM NaHCO₃ (pH 8.2) was coupled to a NUNC plate then incubated at 4° C. overnight.
(§2) (5) The unbound antibody was washed off with PBST.
(§3) (6) When the OD value of the sample was over 3 times of the OD value of the control sample (Ratio+/−>3), the tested sample was determined to be a positive clone. […] Then all the positive clones were transferred to LA medium for plasmid extraction and sequencing.

[2] = target: T1, human Her2 (ECD)-Fc protein; test: PE-ELISA, crude extract on antigen-coated plate
Protocol: as §1, §2, §3

[3] = target: T2, human HER2 antigen protein (human, UniProt P04626 23-652); test: Biacore, Her2 immobilised on CM-5 chip
T2 construct: Antigen coated in the ELISA of Embodiment 5 and immobilised on the CM-5 chip in Embodiment 7; Embodiment 7 says only 'antigen protein Her2' without species or construct; also called antigen protein Her2
Protocol: (1) Immobilization: the stationary phase antigen protein Her2 was immobilized on the surface of CM-5 sensor chip by carboxyl amino reaction.
(3) Chip regeneration: when next antibody was determined, the chip was washed with 10 mM Glycine.

[4] = target: T3, Her2 on cells (BT474, high expression; MDA-MB-231, low expression) (UniProt P04626 23-1255, limits assumed); test: flow cytometry on BT474 cells (high Her2), anti-HA Alexa Fluor488
T3 construct: whole, on cells; Endogenous Her2 of tumour cell lines
Protocol: (§4) (3) Cells were divided into 96-well plates after washing, where number of cells per sample was 3×10⁵. The dilute nanobodies were then added to each well, mixed and placed at 4° C. for 20 min.
(§5) (4) Cells were washed twice with PBS and resuspended with 100 uL PBS. […] Mouse anti-HA Alexa Fluor488 labeled antibody was then added to each sample, mixed and placed at 4° C. for 20 min.
(§6) (5) Cells were washed twice with PBS and then resuspended to the flow tube with 300 uL PBS. Samples were kept on ice in dark condition. Detection was held via machine.

[5] = target: T3, Her2 on cells (BT474, high expression; …); test: flow cytometry on MDA-MB-231 cells (low Her2), anti-HA Alexa Fluor488
Protocol: as §4, §5, §6

B1: Nanobody No. 17 (VHH)
VHH: QVQLQESGGGSVQAGGSLRLSCTASGFTFDDSDMGWYRQAPGNECELVSTISSDGSTYYADSVKGRFTISQDNAKNTVYLQMNSLKPEDTAVYYCADVQIPYGLGTCESLDYWGRGTQVTVSS
notes: camel VHH from pMECs phage display vector; also called Antibody no; 17; not shown: tags (HA, His) implied by anti-HA detection and nickel column
Ratio(+/-) [1]: 23.8 | A405+ [2]: 1.88 A405 | Kd [3]: 6.68 nM | koff [3]: 0.00421 s⁻¹ | kon [3]: 631000 M⁻¹ s⁻¹ | positive rate [4]: 99.9% | positive rate [5]: 12.3%

B2: Nanobody No. 13 (VHH)
VHH: QVQLQESGGGSVQAGETLRLSCTASGFTFDDSDMGWYRQAPGNECELVSTISADGSTFYADSVKGRFTISQDNAKNTVYLQMNSLKPEDTAVYYCASPENEYELGTCEALDYWGQGTQVTVSS
notes: camel VHH from pMECs phage display vector; also called Antibody no; 13; not shown: tags (HA, His) implied by anti-HA detection and nickel column
Ratio(+/-) [1]: 25.1 | A405+ [2]: 2.24 A405 | Kd [3]: 1.18 nM | koff [3]: 0.0015 s⁻¹ | kon [3]: 1.27e+06 M⁻¹ s⁻¹ | positive rate [4]: 99.9% | positive rate [5]: 14.2%

B3: Nanobody No. 23 (VHH)
VHH: QVQLQESGGGSVQAGGSLKLSCSASGFTFDDTDMGWYRQAPGNECELVSTISSDGTTYYTDSVKGRFTISQDNAKNTVYLQMNSLKPEDTAVYYCAAINSGYELGTCESLDYWGRGTQVTVSS
notes: camel VHH from pMECs phage display vector; also called Antibody no; 23; not shown: tags (HA, His) implied by anti-HA detection and nickel column
Ratio(+/-) [1]: 17.1 | A405+ [2]: 1.77 A405 | Kd [3]: 3.73 nM | koff [3]: 0.00255 s⁻¹ | kon [3]: 682000 M⁻¹ s⁻¹ | positive rate [4]: 99.9% | positive rate [5]: 11.5%

B4: Nanobody No. 26 (VHH)
VHH: QVQLQESGGGSVQAGETLRLSCTASGFTFDDSDMGWYRQAPGNECELVSSISSDGSTYYADSVKGRFTISQDNAKNTVYLQMNSLKPEDTGVYYCAAEGHRYELGTCAALDYWGRGTQVTVSS
notes: camel VHH from pMECs phage display vector; also called Antibody no; 26; not shown: tags (HA, His) implied by anti-HA detection and nickel column
Ratio(+/-) [1]: 21.1 | A405+ [2]: 1.9 A405 | Kd [3]: 1.31 nM | koff [3]: 0.00112 s⁻¹ | kon [3]: 857000 M⁻¹ s⁻¹ | positive rate [4]: 99.9% | positive rate [5]: 16.7%

B5: Nanobody No. 22 (VHH)
VHH: QVQLQESGGGSVQAGGSLRLSCTASGFTFDDSDMGWYRQAPGNECELVSRISRDGTTYYADSVKGRFTISQDNAKNTVYLQMNSLKPEDTAVYYCADINSGYELGTCESLDYWGRGTQVTVSS
notes: camel VHH from pMECs phage display vector; also called Antibody no; 22; not shown: tags (HA, His) implied by anti-HA detection and nickel column
Ratio(+/-) [1]: 21.3 | A405+ [2]: 1.78 A405 | Kd [3]: 1.98 nM | koff [3]: 0.0019 s⁻¹ | kon [3]: 957000 M⁻¹ s⁻¹ | positive rate [4]: 99.7% | positive rate [5]: 5.8%

B6: Nanobody No. 9 (VHH)
VHH: QVQLQESGGGSVQAGETLRLSCTASGFTFDDSDMGWYRQAPGSECELVSTISSDGNTYYSNSVKGRFTISQDNAKNTVYLQMNSLKPEDTAVYYCAADDQHYELGTCEALDYWGRGTQVTVSS
notes: camel VHH from pMECs phage display vector; also called Antibody no; not shown: tags (HA, His) implied by anti-HA detection and nickel column
Ratio(+/-) [1]: 24.3 | A405+ [2]: 2.15 A405 | Kd [3]: 3.6 nM | koff [3]: 0.00397 s⁻¹ | kon [3]: 1.11e+06 M⁻¹ s⁻¹ | positive rate [4]: 99.8% | positive rate [5]: 9.5%

B7: Nanobody No. 10 (VHH)
VHH: QVQLQESGGGSVQAGETLKLSCTASGFTFDDSTMAWYRQAPGNECKLVSTISSDGSTYYADSVKGRFTISQDNAKNTVYLQMNSLKPEDTAVYYCAADDQNYELGTCEALDYWGRGTQVTVSS
notes: camel VHH from pMECs phage display vector; also called Antibody no; 10; not shown: tags (HA, His) implied by anti-HA detection and nickel column
Ratio(+/-) [1]: 22.4 | A405+ [2]: 1.63 A405 | Kd [3]: 6.47 nM | koff [3]: 0.00457 s⁻¹ | kon [3]: 706000 M⁻¹ s⁻¹ | positive rate [4]: 99.7% | positive rate [5]: 10.6%
